In this assay the target is T1, Reference peptide no. 48.
T1 sequence (peptide): PKLTRMLTFKFAMPK
Nature of the assay: peptide microarray (RepliTope), Ala mutagenesis set.

NARA1 (antibody) yielded a signal intensity after subtraction of control signal of 6200 AU.
